Patent US20250313627A1 (FUSE BIOTHERAPEUTICS, published 2025)
Each block holds one binder with its values, some of them ahead of it.

Tests used:
[1] = target: T1, human ROR1 (Receptor Tyrosine Kinase-Like Orphan Receptor 1) on the cell surface (human, UniProt Q01973 30-937); experiment: flow cytometry, LS174T cells expressing human ROR1 (low density)
T1 construct: whole, on cells; engineered into B16-F10 (high density) and LS174T (low density) cells; also called B16-F10-ROR1-H; LS174T-ROR1-L
Description: (§1) As shown in the tables below, mouse B16-F10 melanoma (Tables 9A-9F) or LS174T human colorectal adenocarcinoma (Tables 9G-9H) cells genetically engineered to express human ROR1 at high and low densities, respectively, were stained for flow cytometric analysis with 100 nM of humanized variants of the ROR1 specific VHHs, 5A1 or 2A11 in either a VHH-Fc format or the Ac13 format shown in FIG. 1. Cells were analyzed on a flow cytometer after the primary test article was fluorescently tagged with a goat anti human IgG-Fc specific PE secondary antibody. The positive control used was PE conjugated anti-human ROR1 clone 2A2. Negative controls included a PE labeled mouse IgG Ab, the secondary antibody only, the combination of a Hen Egg Lysozyme (HEL) specific antibody plus goat anti human IgG-Fc specific PE and Fluorescence Minus One (FMO). Other controls included the non-humanized version of 5A1-Fc (FUSE179), 2A11-Fc (FUSE112) and 5A1-Ac13 (FUSE488). Humanized variants were generated using computational design (FUSE489, FUSE497-498, FUSE563, FUSE569-570, and BI-HU9-VHH11-33), a yeast display library in which mutations were inserted into the Vernier zone residues of human framework indicated in GenBank accession number M99660 (FUSE524-525, FUSE589, FUSE597-598, FUSE537, FUSE661-662, BI-HU9-HK and BI-HU9-HK-1), and a second yeast display library in which mutations were inserted into the Vernier zone residues of human framework indicated in GenBank accession number AWH66715 and amino acid position 103 within CDR3 (FUSE559, FUSE590-596, BI-HU9-VH9-1, FUSE654-655 and FUSE661-662. Affinity matured variants of FUSE559 were also generated using computational design (F22158101-21; Table 9H).

[2] = target: T1, human ROR1 (Receptor Tyrosine …); experiment: flow cytometry, B16-F10 cells expressing human ROR1 (high density)
Description: as §1

[3] = target: T1, human ROR1 (Receptor Tyrosine …); experiment: as above; remark: listed apart in the source
Description: as §1

[4] = target: T1, human ROR1 (Receptor Tyrosine …); experiment: as above; remark: listed apart in the source
Description: as §1

[5] = target: T2, recombinant His tagged human ROR1 (human, UniProt Q01973 30-403, limits assumed); experiment: BLI (Octet), VHH-Fc loaded on the biosensor, His tagged ROR1 in solution
T2 construct: Analyte in the BLI assay; also called Human ROR1-His; recombinant ROR1

[6] = target: T2, recombinant His tagged human ROR1; experiment: BLI (Octet), FUSE protein on the tip, His tagged ROR1 in solution; 2A11 parental VHH-Fc
Description: (§2) As shown in FIGS. 5A-5D, the binding affinities (KD) of TCEs for ROR1 were assessed. We examined the magnitude by which several TCEs and mutants thereof bind to recombinant ROR1. Kinetic binding graphs were generated via Bio-Layer Interferometry (BLI) using an Octet system. For each TCE, the biosensor tips were coated with FUSE proteins at 15 μg/ml and probed with either recombinant His tagged ROR1 at concentrations ranging from 100 pM to 10 μM. […] The binding affinity (KD), on rate (k-on) and off rate (k-dis), are summarized for ROR1 in FIG. 5D.
(§3) We further examined the impact of mutating the cysteine residues located in CDR1 and CDR3 of 2A11 VHH and 5A1 VHH.

[7] = target: T2, recombinant His tagged human ROR1; experiment: BLI (Octet), VHH-Fc loaded on the biosensor, His tagged ROR1 in solution; column 'kdis(1/s)'
[8] = target: T1, human ROR1 (Receptor Tyrosine …); experiment: flow cytometry, LS174T cells expressing human ROR1 (low density); remark: listed apart in the source
[9] = target: T1, human ROR1 (Receptor Tyrosine …); experiment: flow cytometry, B16-F10 cells expressing human ROR1 (high density); remark: listed apart in the source
[10] = target: T1, human ROR1 (Receptor Tyrosine …); experiment: as above; remark: listed apart in the source
Description: as §1

[11] = target: T2, recombinant His tagged human ROR1; experiment: BLI (Octet), VHH-Fc loaded on the biosensor, His tagged ROR1 in solution; remark: listed apart in the source
[12] = target: T2, recombinant His tagged human ROR1; experiment: BLI (Octet), FUSE protein on the tip, His tagged ROR1 in solution; 5A1 parental VHH-Fc
Description: as §2, §3

[13] = target: T2, recombinant His tagged human ROR1; experiment: BLI (Octet), VHH-Fc loaded on the biosensor, His tagged ROR1 in solution; column 'kdis(1/s)'; remark: listed apart in the source
[14] = target: T1, human ROR1 (Receptor Tyrosine …); experiment: flow cytometry on B16-F10 cells engineered to express human ROR1, secondary antibody to the IgG1 Fc
Description: As shown in FIG. 15 the apparent binding affinity (EC50-binding) of the ROR1 specific VHH-Fc incorporating either the non humanized VHH clone 5A1 (FUSE179; black circle), the humanized clone 5A1-FA9-HK1 (FUSE559; black square) or the humanized clone 5A1-HK1 (FUSE524; black triangle) was calculated. Shown is a non-linear x-y plot of binding to B16-F10 cell engineered to express human ROR1 relative to the concentration of test article used for staining. A Hen Egg Lysozyme (HEL)-specific antibody was used as the negative isotype control. Binding was measured via flow cytometry using a fluorescently labeled secondary antibody specific for the Fc domain of IgG1. A summary table of EC50s and maximum MFI is shown beneath under the graph.

[15] = target: T2, recombinant His tagged human ROR1; experiment: SPR (Biacore 8K), recombinant human ROR1 amine-coupled on a CM5 chip (4400 RU), analyte 200nM, 1:1 binding fit [table below it]
Description: (§4) Protein test article binding to recombinant human ROR1 (Acro Biosystems, RO1-H522y) was detected on a BIAcore 8K (Cytiva) biosensor system using an SPR assay. Briefly, a carboxymethylated CM5 sensor chip was activated with 1:1 mixture of 0.4 M N-ethyl-N-(3-dimethylaminopropyl) carbodiimide and 0.1 M′ N-hydroxysuccinimide. Recombinant human ROR1 in 10 mM NaOAc (pH5) was then immobilized on the sensor chip by amine-coupling according to the manufacturer's instructions to yield the stable RU of 4400. Unreacted sites were blocked with 1M ethanolamine/HCl (pH 8). Control flow cells (blank) were activated and blocked in the absence of ROR1. Flow cells were routinely equilibrated with running buffer (PBS, 0.005% surfactant P20). Test article proteins used for assessment of binding to recombinant human ROR1 binding were diluted in HBS-EP running buffer and injected into the sensor chip at different concentrations. […] Data from duplicate assays were modeled for binding equilibrium and dot plots for 200 nM of protein test article was calculated. Association constant (ka), dissociation constant (kd) and binding affinity (KD=kd/ka) were generated from integrated software in the BIAcore 8K system.
(§5) Shown are sensorgrams of surface plasmon resonance (SPR) data generated via Biacore analysis. A summary table of binding affinity (KD), on rate (k-a) and off rate (kd) is shown below FIG. 16B.

[16] = target: T2, recombinant His tagged human ROR1; experiment: SPR (Biacore 8K), recombinant human ROR1 amine-coupled on a CM5 chip (4400 RU), analyte 200nM, 1:1 binding fit; column 'kd (1/s)' [table below it]
Description: as §4, §5

[17] = target: T2, recombinant His tagged human ROR1; experiment: SPR (Biacore 8K), recombinant human ROR1 amine-coupled on a CM5 chip (4400 RU), analyte 200nM, 1:1 binding fit; column '1:1 binding ka (1/Ms)' [table below it]
Description: as §4, §5

T1 sequence (Q01973 30-937): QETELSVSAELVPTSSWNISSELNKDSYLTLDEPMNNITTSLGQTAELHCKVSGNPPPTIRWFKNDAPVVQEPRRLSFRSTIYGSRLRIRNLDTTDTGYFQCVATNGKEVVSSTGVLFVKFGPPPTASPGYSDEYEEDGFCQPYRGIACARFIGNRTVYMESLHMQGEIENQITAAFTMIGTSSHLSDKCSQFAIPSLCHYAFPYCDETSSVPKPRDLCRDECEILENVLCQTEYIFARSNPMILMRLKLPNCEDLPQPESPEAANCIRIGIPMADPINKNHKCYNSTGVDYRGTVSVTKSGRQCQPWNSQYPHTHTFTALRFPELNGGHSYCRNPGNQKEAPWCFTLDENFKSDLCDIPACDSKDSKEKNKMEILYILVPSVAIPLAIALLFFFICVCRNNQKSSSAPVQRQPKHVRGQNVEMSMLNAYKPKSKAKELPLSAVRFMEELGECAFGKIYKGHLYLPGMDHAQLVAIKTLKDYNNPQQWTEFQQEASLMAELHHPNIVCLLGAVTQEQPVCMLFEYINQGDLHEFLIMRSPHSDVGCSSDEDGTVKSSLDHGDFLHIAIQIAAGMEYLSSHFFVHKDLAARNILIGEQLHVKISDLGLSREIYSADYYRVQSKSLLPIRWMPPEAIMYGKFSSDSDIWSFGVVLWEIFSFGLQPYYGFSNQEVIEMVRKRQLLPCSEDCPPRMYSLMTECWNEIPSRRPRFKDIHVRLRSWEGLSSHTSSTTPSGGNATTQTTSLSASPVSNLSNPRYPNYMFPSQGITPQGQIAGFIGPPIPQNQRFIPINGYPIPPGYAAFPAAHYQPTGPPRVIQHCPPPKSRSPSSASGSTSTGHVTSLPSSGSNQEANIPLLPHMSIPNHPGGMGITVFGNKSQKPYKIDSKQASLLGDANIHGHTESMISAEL
T2 sequence (Q01973 30-403 limits assumed): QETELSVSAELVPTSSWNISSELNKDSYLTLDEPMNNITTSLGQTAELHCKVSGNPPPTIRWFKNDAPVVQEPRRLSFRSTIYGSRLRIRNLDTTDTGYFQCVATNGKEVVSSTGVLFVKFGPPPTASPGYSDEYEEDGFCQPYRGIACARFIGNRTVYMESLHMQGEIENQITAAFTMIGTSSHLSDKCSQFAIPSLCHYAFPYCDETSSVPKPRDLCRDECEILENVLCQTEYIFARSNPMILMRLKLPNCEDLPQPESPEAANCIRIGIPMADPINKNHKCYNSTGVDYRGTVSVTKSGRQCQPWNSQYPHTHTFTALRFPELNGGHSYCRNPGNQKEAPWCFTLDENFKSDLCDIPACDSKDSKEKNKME

MFI [1]: 4340
MFI [2]: 11900
MFI [3]: 7840
MFI [4]: 208000
Kd [5]: 42.4 nM
kon [5]: 43100 M⁻¹ s⁻¹
Kd [6]: ~4 nM
koff [7]: 0.00183 s⁻¹
B1: FUSE-112 (2A11 VHH-human-Fc fusion protein) (Fc fusion)
chain: QVQLQESGGGSVPAGGSLRLSCAASGSTYSANCMGWFRQAPGKEREEVASMSIRSGRTYYSDSVKGRFTISQDGSKNTLYLQLNSLKAEDTALYYCAAAYGGSRCVYNYRGQGTQVTVSS
notes: VHH-human-Fc fusion; non-humanized 2A11; also called 2A11-Fc; not shown: human Fc

MFI [1]: 836
MFI [8]: 3060
MFI [9]: 4220
MFI [10]: 3730
MFI [2]: 8480
MFI [3]: 4480
MFI [4]: 93800
Kd [11]: 36 nM
kon [11]: 48200 M⁻¹ s⁻¹
Kd [12]: ~4 nM
koff [13]: 0.00174 s⁻¹
EC50 [14]: 2.04 nM
Max MFI [14]: 4900 MFI
Kd [15]: 7.38 nM
koff [16]: 0.00106 s⁻¹
kon [17]: 144000 M⁻¹ s⁻¹
B2: FUSE-179 (5A1 VHH-human-Fc fusion protein) (Fc fusion)
chain: QVQLQESGGGSVQAGGSLKLSCTASGYTNRLKCMGWFRQAPGKEREEIATISTGTGNTYYADSVKGRFTFSQDKVKNTVYLQMNTLKPDDTGMYYCAADVRPDGTTCHYNSGGQGTQVTVSS
notes: VHH-human-Fc fusion; non-humanized 5A1; not shown: human Fc
